What all share (format): ADME
Series [1] addresses T1, UDP-glucuronosyltransferase 1A10 (Homo sapiens, UniProt Q9HAW8).
T1 sequence (Q9HAW8 whole entry): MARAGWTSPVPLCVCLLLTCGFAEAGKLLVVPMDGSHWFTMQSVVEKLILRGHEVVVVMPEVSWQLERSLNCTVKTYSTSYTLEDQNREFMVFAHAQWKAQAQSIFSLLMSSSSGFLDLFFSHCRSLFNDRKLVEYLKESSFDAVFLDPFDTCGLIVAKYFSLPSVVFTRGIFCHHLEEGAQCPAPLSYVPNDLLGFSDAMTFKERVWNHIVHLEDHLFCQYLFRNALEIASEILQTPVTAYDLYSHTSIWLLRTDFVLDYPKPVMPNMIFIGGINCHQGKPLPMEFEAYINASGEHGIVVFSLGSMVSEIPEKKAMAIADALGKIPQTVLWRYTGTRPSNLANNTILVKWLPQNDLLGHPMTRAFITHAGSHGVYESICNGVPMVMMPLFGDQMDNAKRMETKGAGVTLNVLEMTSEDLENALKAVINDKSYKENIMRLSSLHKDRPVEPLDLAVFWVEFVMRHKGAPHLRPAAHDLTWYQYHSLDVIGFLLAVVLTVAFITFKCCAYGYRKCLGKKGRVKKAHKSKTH
Kind of series: Drug level assessed as human recombinant UGT1A10-mediated glucuronidation treated with irilone incubated for 5 mins prior to UDPGA addition measured after 90 mins by HPLC-DAD analysis. Conditions: recombinant enzyme, 1.5 h.

Series [2] addresses T2, UDP-glucuronosyltransferase 1A1 (Homo sapiens, UniProt P22309).
T2 sequence (P22309 whole entry): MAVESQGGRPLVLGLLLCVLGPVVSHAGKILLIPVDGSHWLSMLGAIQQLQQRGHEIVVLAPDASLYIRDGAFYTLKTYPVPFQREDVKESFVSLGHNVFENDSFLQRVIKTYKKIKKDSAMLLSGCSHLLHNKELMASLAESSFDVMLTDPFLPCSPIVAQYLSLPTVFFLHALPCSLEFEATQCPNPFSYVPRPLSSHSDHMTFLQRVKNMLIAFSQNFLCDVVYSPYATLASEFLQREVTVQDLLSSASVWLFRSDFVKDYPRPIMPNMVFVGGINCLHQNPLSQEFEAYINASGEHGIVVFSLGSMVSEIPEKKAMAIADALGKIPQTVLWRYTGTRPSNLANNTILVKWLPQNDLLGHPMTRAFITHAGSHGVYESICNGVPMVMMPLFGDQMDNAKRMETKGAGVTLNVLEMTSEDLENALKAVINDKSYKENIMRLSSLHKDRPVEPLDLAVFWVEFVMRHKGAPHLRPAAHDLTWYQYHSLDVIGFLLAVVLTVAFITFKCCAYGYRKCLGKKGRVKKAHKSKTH
The series can be described thus: Drug level assessed as human recombinant UGT1A1-mediated glucuronidation treated with 25 uM irilone incubated for 5 mins prior to UDPGA addition measured after 90 mins by HPLC-DAD analysis. Particulars: recombinant enzyme, 1.5 h.

Series [3] addresses T3, UDP-glucuronosyltransferase 1A7 (Homo sapiens, UniProt Q9HAW7).
T3 sequence (Q9HAW7 whole entry): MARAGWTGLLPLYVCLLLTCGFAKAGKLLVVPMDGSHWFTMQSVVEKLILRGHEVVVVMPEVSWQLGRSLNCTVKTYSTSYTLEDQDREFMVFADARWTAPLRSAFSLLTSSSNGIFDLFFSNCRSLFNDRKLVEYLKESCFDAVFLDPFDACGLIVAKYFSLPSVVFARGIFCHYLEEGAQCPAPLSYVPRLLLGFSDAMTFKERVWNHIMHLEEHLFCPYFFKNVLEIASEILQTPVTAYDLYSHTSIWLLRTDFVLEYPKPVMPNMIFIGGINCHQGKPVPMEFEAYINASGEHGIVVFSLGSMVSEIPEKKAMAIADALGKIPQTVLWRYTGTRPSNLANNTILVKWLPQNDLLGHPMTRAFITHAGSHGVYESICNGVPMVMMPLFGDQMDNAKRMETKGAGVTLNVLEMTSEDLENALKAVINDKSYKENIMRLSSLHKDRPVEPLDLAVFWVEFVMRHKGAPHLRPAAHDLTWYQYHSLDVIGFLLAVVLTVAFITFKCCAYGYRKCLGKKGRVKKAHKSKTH
Kind of series: Drug level assessed as human recombinant UGT1A7-mediated glucuronidation treated with 25 uM irilone incubated for 5 mins prior to UDPGA addition measured after 90 mins by HPLC-DAD analysis. Particulars: recombinant enzyme, 1.5 h.

For series [4], the target named is T4, UDP-glucuronosyltransferase 1A8 (Homo sapiens, UniProt Q9HAW9).
T4 sequence (Q9HAW9 whole entry): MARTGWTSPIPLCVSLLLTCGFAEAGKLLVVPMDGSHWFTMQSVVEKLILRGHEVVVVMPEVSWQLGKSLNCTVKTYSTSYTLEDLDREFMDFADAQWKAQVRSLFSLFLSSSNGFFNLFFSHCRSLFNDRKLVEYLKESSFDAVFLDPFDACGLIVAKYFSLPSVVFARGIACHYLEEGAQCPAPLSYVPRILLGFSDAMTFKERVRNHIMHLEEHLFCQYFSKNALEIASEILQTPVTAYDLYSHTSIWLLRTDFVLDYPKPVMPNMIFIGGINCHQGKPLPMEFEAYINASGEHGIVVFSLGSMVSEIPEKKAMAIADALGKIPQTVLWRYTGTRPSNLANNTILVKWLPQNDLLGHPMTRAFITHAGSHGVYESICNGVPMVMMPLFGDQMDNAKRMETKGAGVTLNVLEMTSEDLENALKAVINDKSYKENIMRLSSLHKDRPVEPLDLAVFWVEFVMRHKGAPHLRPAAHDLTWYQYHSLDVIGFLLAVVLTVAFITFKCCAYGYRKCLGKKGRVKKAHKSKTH
The series can be described thus: Drug level assessed as human recombinant UGT1A8-mediated glucuronidation treated with 25 uM irilone incubated for 5 mins prior to UDPGA addition measured after 90 mins by HPLC-DAD analysis. Particulars: recombinant enzyme, 1.5 h.

Substrate in series [5]: O=c1c(-c2ccc(O)cc2)coc2cc3c(c(O)c12)OCO3
Kind of series: Activity of human recombinant UGT1A10 assessed as IRI-O-4'-monoglucuronide formation incubated for 5 mins prior to UDPGA addition measured after 90 mins by Eadie-Hoftsee plot analysis.

Substrate in series [6]: O=c1c(-c2ccc(O)cc2)coc2cc3c(c(O)c12)OCO3
Kind of series: Activity of human recombinant UGT1A1 assessed as IRI-O-5-monoglucuronide formation incubated for 5 mins prior to UDPGA addition measured after 90 mins by Eadie-Hoftsee plot analysis.

Substrate in series [7]: O=c1c(-c2ccc(O)cc2)coc2cc3c(c(O)c12)OCO3
Kind of series: Activity of human recombinant UGT1A1 assessed as IRI-O-4'-monoglucuronide formation incubated for 5 mins prior to UDPGA addition measured after 90 mins by Eadie-Hoftsee plot analysis.

Substrate in series [8]: O=c1c(-c2ccc(O)cc2)coc2cc3c(c(O)c12)OCO3
The series can be described thus: Activity of human recombinant UGT1A9 assessed as IRI-O-5-monoglucuronide formation incubated for 5 mins prior to UDPGA addition measured after 90 mins by Eadie-Hoftsee plot analysis.

Substrate in series [9]: O=c1c(-c2ccc(O)cc2)coc2cc3c(c(O)c12)OCO3
The series can be described thus: Activity of human recombinant UGT1A8 assessed as IRI-O-4'-monoglucuronide formation incubated for 5 mins prior to UDPGA addition measured after 90 mins by Eadie-Hoftsee plot analysis.

Substrate in series [10]: O=c1c(-c2ccc(O)cc2)coc2cc3c(c(O)c12)OCO3
The series can be described thus: Activity of human recombinant UGT1A8 assessed as IRI-O-5-monoglucuronide formation incubated for 5 mins prior to UDPGA addition measured after 90 mins by Eadie-Hoftsee plot analysis.

Substrate in series [11]: O=c1c(-c2ccc(O)cc2)coc2cc3c(c(O)c12)OCO3
The series can be described thus: Activity of human recombinant UGT1A7 assessed as IRI-O-5-monoglucuronide formation incubated for 5 mins prior to UDPGA addition measured after 90 mins by Eadie-Hoftsee plot analysis.

Experimental findings from ChEMBL document CHEMBL3525955, “Glucuronidation of the red clover isoflavone irilone by liver microsomes from different species and human UDP-glucuronosyltransferases” (Drug Metab Dispos, 2011) are described below.

`COc1c2c(cc3occ(-c4ccc(O[C@@H]5O[C@H](C(=O)O)[C@@H](O)[C@H](O)[C@H]5O)cc4)c(=O)c13)OCO2`: the Drug metabolism result in [1] is listed as “metabolite_detected”.
Take `O=C(O)[C@H]1O[C@@H](Oc2ccc(-c3coc4cc5c(c(O)c4c3=O)OCO5)cc2)[C@H](O)[C@@H](O)[C@@H]1O`: the Drug metabolism result in series [2], in [3], in series [1] and in series [4] was “metabolite_detected” in each case.

B1: UDP-glucuronosyltransferase 1A10 (Homo sapiens) (protein)
chain: MARAGWTSPVPLCVCLLLTCGFAEAGKLLVVPMDGSHWFTMQSVVEKLILRGHEVVVVMPEVSWQLERSLNCTVKTYSTSYTLEDQNREFMVFAHAQWKAQAQSIFSLLMSSSSGFLDLFFSHCRSLFNDRKLVEYLKESSFDAVFLDPFDTCGLIVAKYFSLPSVVFTRGIFCHHLEEGAQCPAPLSYVPNDLLGFSDAMTFKERVWNHIVHLEDHLFCQYLFRNALEIASEILQTPVTAYDLYSHTSIWLLRTDFVLDYPKPVMPNMIFIGGINCHQGKPLPMEFEAYINASGEHGIVVFSLGSMVSEIPEKKAMAIADALGKIPQTVLWRYTGTRPSNLANNTILVKWLPQNDLLGHPMTRAFITHAGSHGVYESICNGVPMVMMPLFGDQMDNAKRMETKGAGVTLNVLEMTSEDLENALKAVINDKSYKENIMRLSSLHKDRPVEPLDLAVFWVEFVMRHKGAPHLRPAAHDLTWYQYHSLDVIGFLLAVVLTVAFITFKCCAYGYRKCLGKKGRVKKAHKSKTH
Usually Km stands for the concentration of substrate that gives half-maximal velocity. A word on the Vmax: it is the top rate of the reaction or transport when substrate is in excess. For the molecule B1, in [5], the Km came out at 10.3 µM and the Vmax came to 0.00103 µmol/min/mg.

B2: UDP-glucuronosyltransferase 1A1 (Homo sapiens) (protein)
chain: MAVESQGGRPLVLGLLLCVLGPVVSHAGKILLIPVDGSHWLSMLGAIQQLQQRGHEIVVLAPDASLYIRDGAFYTLKTYPVPFQREDVKESFVSLGHNVFENDSFLQRVIKTYKKIKKDSAMLLSGCSHLLHNKELMASLAESSFDVMLTDPFLPCSPIVAQYLSLPTVFFLHALPCSLEFEATQCPNPFSYVPRPLSSHSDHMTFLQRVKNMLIAFSQNFLCDVVYSPYATLASEFLQREVTVQDLLSSASVWLFRSDFVKDYPRPIMPNMVFVGGINCLHQNPLSQEFEAYINASGEHGIVVFSLGSMVSEIPEKKAMAIADALGKIPQTVLWRYTGTRPSNLANNTILVKWLPQNDLLGHPMTRAFITHAGSHGVYESICNGVPMVMMPLFGDQMDNAKRMETKGAGVTLNVLEMTSEDLENALKAVINDKSYKENIMRLSSLHKDRPVEPLDLAVFWVEFVMRHKGAPHLRPAAHDLTWYQYHSLDVIGFLLAVVLTVAFITFKCCAYGYRKCLGKKGRVKKAHKSKTH
For B2, in [6], the Km turned out to be 24.6 µM and the Vmax came out at 0.00067 µmol/min/mg. In addition, in series [7], the Km stood at 32.9 µM and the Vmax was found to be 0.00014 µmol/min/mg.

B3: UDP-glucuronosyltransferase 1A9 (Homo sapiens) (protein)
chain: MACTGWTSPLPLCVCLLLTCGFAEAGKLLVVPMDGSHWFTMRSVVEKLILRGHEVVVVMPEVSWQLGRSLNCTVKTYSTSYTLEDLDREFKAFAHAQWKAQVRSIYSLLMGSYNDIFDLFFSNCRSLFKDKKLVEYLKESSFDAVFLDPFDNCGLIVAKYFSLPSVVFARGILCHYLEEGAQCPAPLSYVPRILLGFSDAMTFKERVRNHIMHLEEHLLCHRFFKNALEIASEILQTPVTEYDLYSHTSIWLLRTDFVLDYPKPVMPNMIFIGGINCHQGKPLPMEFEAYINASGEHGIVVFSLGSMVSEIPEKKAMAIADALGKIPQTVLWRYTGTRPSNLANNTILVKWLPQNDLLGHPMTRAFITHAGSHGVYESICNGVPMVMMPLFGDQMDNAKRMETKGAGVTLNVLEMTSEDLENALKAVINDKSYKENIMRLSSLHKDRPVEPLDLAVFWVEFVMRHKGAPHLRPAAHDLTWYQYHSLDVIGFLLAVVLTVAFITFKCCAYGYRKCLGKKGRVKKAHKSKTH
B3: in [8], the Km worked out at 5 µM and the Vmax amounted to 0.00027 µmol/min/mg.

B4: UDP-glucuronosyltransferase 1A8 (Homo sapiens) (protein)
chain: MARTGWTSPIPLCVSLLLTCGFAEAGKLLVVPMDGSHWFTMQSVVEKLILRGHEVVVVMPEVSWQLGKSLNCTVKTYSTSYTLEDLDREFMDFADAQWKAQVRSLFSLFLSSSNGFFNLFFSHCRSLFNDRKLVEYLKESSFDAVFLDPFDACGLIVAKYFSLPSVVFARGIACHYLEEGAQCPAPLSYVPRILLGFSDAMTFKERVRNHIMHLEEHLFCQYFSKNALEIASEILQTPVTAYDLYSHTSIWLLRTDFVLDYPKPVMPNMIFIGGINCHQGKPLPMEFEAYINASGEHGIVVFSLGSMVSEIPEKKAMAIADALGKIPQTVLWRYTGTRPSNLANNTILVKWLPQNDLLGHPMTRAFITHAGSHGVYESICNGVPMVMMPLFGDQMDNAKRMETKGAGVTLNVLEMTSEDLENALKAVINDKSYKENIMRLSSLHKDRPVEPLDLAVFWVEFVMRHKGAPHLRPAAHDLTWYQYHSLDVIGFLLAVVLTVAFITFKCCAYGYRKCLGKKGRVKKAHKSKTH
Consider B4, for which the Km in series [9] was 87.5 µM; in series [10], 70.9 µM. The values for the Vmax in series [9] and in series [10] were 0.00054 µmol/min/mg and 0.001 µmol/min/mg, respectively.

B5: UDP-glucuronosyltransferase 1A7 (Homo sapiens) (protein)
chain: MARAGWTGLLPLYVCLLLTCGFAKAGKLLVVPMDGSHWFTMQSVVEKLILRGHEVVVVMPEVSWQLGRSLNCTVKTYSTSYTLEDQDREFMVFADARWTAPLRSAFSLLTSSSNGIFDLFFSNCRSLFNDRKLVEYLKESCFDAVFLDPFDACGLIVAKYFSLPSVVFARGIFCHYLEEGAQCPAPLSYVPRLLLGFSDAMTFKERVWNHIMHLEEHLFCPYFFKNVLEIASEILQTPVTAYDLYSHTSIWLLRTDFVLEYPKPVMPNMIFIGGINCHQGKPVPMEFEAYINASGEHGIVVFSLGSMVSEIPEKKAMAIADALGKIPQTVLWRYTGTRPSNLANNTILVKWLPQNDLLGHPMTRAFITHAGSHGVYESICNGVPMVMMPLFGDQMDNAKRMETKGAGVTLNVLEMTSEDLENALKAVINDKSYKENIMRLSSLHKDRPVEPLDLAVFWVEFVMRHKGAPHLRPAAHDLTWYQYHSLDVIGFLLAVVLTVAFITFKCCAYGYRKCLGKKGRVKKAHKSKTH
As for B5, in [11], the Km amounted to 9.4 µM and the Vmax was found to be 4e-05 µmol/min/mg.
